Target: DC-specific intercellular adhesion molecule 3-grabbing non-integrin (DC-SIGN) (human) (UniProt Q9NNX6)
Experiment: atomic force spectroscopy (AFM force spectroscopy); MUB covalently attached to the AFM tip (MAL-PEG-SCM linker), DC-SIGN, SIGN-R1 or Dectin-2 covalently attached to glass slides (GMBS); PBS; force-volume mode, 2 um/s, maximum load force 300 pN; repeated after addition of 0.05 mg/ml anti-Mub antibody

mucus-binding protein MUB of Lactobacillus reuteri ATCC 53608 (natural protein)
modal value of binding strength: 684 pN

— PMC5339304
